Reference: patent publication EP2500357A2 (Abbott Laboratories, dated 2012)

Assays:
Assay in all cases: cell-based or functional assay
recombinant human IL-1α [1] = molecular target: T1, recombinant human IL-1α (human, UniProt P01583 113-271)
T1 sequence (looked up): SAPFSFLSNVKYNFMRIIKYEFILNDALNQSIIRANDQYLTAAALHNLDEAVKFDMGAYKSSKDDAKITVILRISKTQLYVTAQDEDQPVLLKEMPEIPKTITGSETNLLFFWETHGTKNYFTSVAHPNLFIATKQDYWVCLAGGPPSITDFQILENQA

recombinant human IL-1α [2] = molecular target: T1, recombinant human IL-1α; remark: listed apart in the source
recombinant human IL-1β [3] = molecular target: T2, recombinant human IL-1β (human, UniProt P01584 117-269)
recombinant human IL-1α [4] = molecular target: T1, recombinant human IL-1α; remark: listed apart in the source
recombinant human IL-1β [5] = molecular target: T2, recombinant human IL-1β; remark: listed apart in the source
recombinant human IL-1β [6] = molecular target: T2, recombinant human IL-1β; remark: listed apart in the source
recombinant human IL-1β [7] = molecular target: T2, recombinant human IL-1β; remark: listed apart in the source
human IL-12 [8] = molecular target: T3, human IL-12 (human, UniProt P29459 23-219; P29460 23-328)
T3 sequence (looked up) 1: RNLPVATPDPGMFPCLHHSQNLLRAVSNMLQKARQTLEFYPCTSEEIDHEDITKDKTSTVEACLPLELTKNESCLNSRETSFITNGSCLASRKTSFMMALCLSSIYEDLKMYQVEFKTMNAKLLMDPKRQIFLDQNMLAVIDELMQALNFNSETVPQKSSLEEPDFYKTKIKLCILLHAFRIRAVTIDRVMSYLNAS
T3 sequence (looked up) 2: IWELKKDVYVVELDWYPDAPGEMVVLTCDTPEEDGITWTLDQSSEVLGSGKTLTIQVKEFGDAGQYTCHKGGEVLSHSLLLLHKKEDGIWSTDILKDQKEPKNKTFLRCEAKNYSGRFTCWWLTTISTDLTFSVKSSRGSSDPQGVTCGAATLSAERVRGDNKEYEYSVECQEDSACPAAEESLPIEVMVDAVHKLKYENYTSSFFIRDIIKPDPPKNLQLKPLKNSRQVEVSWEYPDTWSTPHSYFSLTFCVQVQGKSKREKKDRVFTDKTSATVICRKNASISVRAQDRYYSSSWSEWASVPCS

human IL-18 = human IL-18 (human, UniProt Q14116 37-193)
human IL-12 [9] = molecular target: T3, human IL-12; remark: listed apart in the source
mouse IL-1α = molecular target: T4, mouse IL-1α (mouse, UniProt P01582 115-270)
T4 sequence (looked up): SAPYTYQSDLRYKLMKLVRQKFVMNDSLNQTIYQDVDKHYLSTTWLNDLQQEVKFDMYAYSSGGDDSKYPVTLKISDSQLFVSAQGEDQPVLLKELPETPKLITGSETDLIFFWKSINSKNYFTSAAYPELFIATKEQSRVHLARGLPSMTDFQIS

mouse IL-1β = mouse IL-1β (mouse, UniProt P10749 118-269)
Sequence of mouse IL-1β (P10749 118-269 limits assumed): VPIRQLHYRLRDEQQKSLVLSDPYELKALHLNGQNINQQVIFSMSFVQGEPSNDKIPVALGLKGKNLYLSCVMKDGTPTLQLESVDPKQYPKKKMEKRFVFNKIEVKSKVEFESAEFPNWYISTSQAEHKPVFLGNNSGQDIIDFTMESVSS

B1: murine anti-hIL-1α mAb 3D12.E3 (antibody, V domains shown)
VH: QIQLVQSGPELKKPGETVKISCKASGYTFRNYGMNWVKQAPGKDLKRMAWINTYTGESTYADDFKGRFAFSLETSASTAYLQINNLKNEDTATYFCARGIYYYGSSYAMDYWGQGTSVTVSS
VL: NIQMTQTTSSLSASLGDRVTISCRASQDISNCLNWYQQKPDGTVKLLIYYTSRLHSGVPSRFSGSGSGTDYSLTISNLEQEDIATYFCQQGKTLPYAFGGGTKLEINR
Potency (IC50), MRC-5 bioassay (recombinant human IL-1α [1]): 0.67 nM | IC50, inhibition of IL-8 production by MRC-5 cells (recombinant human IL-1α [2]): 0.67 nM

B2: hIL-1a/bDVD2-Ig (bispecific antibody, human IgG1, kappa)
heavy: not shown
light: NIVLTQSPASLAVSLGQRATISCRASESVDSYGNSYMHWYQQKPGQPPKLLIYLASNLESGVPARFSGSGSRTDFTLTIDPVEADDAATYYCQQNNEDPFTFGSGTKLEIKRADAAPNIQMTQTTSSLSASLGDRVTISCRASQDISNCLNWYQQKPDGTVKLLIYYTSRLHSGVPSRFSGSGSGTDYSLTISNLEQEDIATYFCQQGKTLPYAFGGGTKLEINRTVAAPSVFIFPPSDEQLKSGTASVVCLLNNFYPREAKVQWKVDNALQSGNSQESVTEQDSKDSTYSLSSTLTLSKADYEKHKVYACEVTHQGLSSPVTKSFNRGEC
dual-inhibition activity, IL-8 synthesis by MRC-5 cells with both IL-1α and IL-1β present (recombinant human IL-1β [3]): 1.2 nM | neutralizing activity to hIL-1β relative to DVD1-Ig (recombinant human IL-1β [3]): 3 fold | dual-inhibition activity, IL-8 synthesis by MRC-5 cells with both IL-1α and IL-1β present (recombinant human IL-1α [4]): 1.2 nM | neutralizing activity against hIL-1α relative to the chimeric Abs (recombinant human IL-1α [4]): 3 fold | Potency (IC50), MRC-5 bioassay (recombinant human IL-1β [5]): 1.6 nM | Potency (IC50), MRC-5 bioassay (recombinant human IL-1α [1]): 2.9 nM

B3: murine anti-hIL-1β mAb 13F5.G5 (antibody, V domains shown)
VH: QVQLQQSGAELVRPGSSVKISCKASGYAFSSYWMNWVKQRPGQGLEWIGQIYPGDGDTNYNGKFKGKATLTADKSSSTSYMQLSGLTSEDSAMYFCVRFPTGNDYYAMDYWGQGTSVTVSS
VL: NIVLTQSPASLAVSLGQRATISCRASESVDSYGNSYMHWYQQKPGQPPKLLIYLASNLESGVPARFSGSGSRTDFTLTIDPVEADDAATYYCQQNNEDPFTFGSGTKLEIKR
Potency (IC50), MRC-5 bioassay (recombinant human IL-1β [5]): 0.6 nM | IC50, inhibition of IL-8 production by MRC-5 cells (recombinant human IL-1β [6]): 0.6 nM

B4: murine anti-hIL-1β mAb 1B12.4H4 (antibody, V domains shown)
VH: QVHLKESGPGLVAPSQSLSITCTVSGFSLTDYGVSWIRQPPGKGLEWLGLIWGGGDTYYNSPLKSRLSIRKDNSKSQVFLKMNSLQTDDTAVYYCAKQRTLWGYDLYGMDYWGQGTSVTVSS
VL: ETTVTQSPASLSMAIGEKVTIRCITSTDIDVDMNWYQQKPGEPPKLLISQGNTLRPGVPSRFSSSGSGTDFVFIIENMLSEDVADYYCLQSDNLPLTFGAGTKLELKR
IC50, MRC-5 bioassay (recombinant human IL-1β [7]): 0.6 nM | IC50, inhibition of IL-8 production by MRC-5 cells (recombinant human IL-1β [6]): 0.53 nM

B5: murine anti-hIL-1β mAb 6B12.4F6 (antibody, V domains shown)
VH: EVQLQQSGPELVKTGTSVKISCKASGYSFTGYYMHWVRQSHGKSLEWIGYISCYNGFTSYNPKFKGKATFTVDTSSSTAYIQFSRLTSEDSAVYYCARSDYYGTNDYWGQGTTLTVSS
VL: QIVLTQSPAIMSASPGEKVTITCSASSSVSYMHWFQQKPGASPKLWIYSTSNLASGVPARFSGSGSGTSYSLTVSRMEAEDAATYYCQQRSTYPYTFGGGTKLEIKR
IC50, MRC-5 bioassay (recombinant human IL-1β [7]): 0.4 nM | IC50, inhibition of IL-8 production by MRC-5 cells (recombinant human IL-1β [6]): 0.32 nM

B6: ABT874 (anti-human IL-12p40 mAb) (antibody, V domains shown)
VH: QVQLVESGGGVVQPGRSLRLSCAASGFTFSSYGMHWVRQAPGKGLEWVAFIRYDGSNKYYADSVKGRFTISRDNSKNTLYLQMNSLRAEDTAVYYCKTHGSHDNWGQGTMVTVSS
VL: QSVLTQPPSVSGAPGQRVTISCSGSRSNIGSNTVKWYQQLPGTAPKLLIYYNDQRPSGVPDRFSGSKSGTSASLAITGLQAEDEADYYCQSYDRYTHPALLFGTGTKVTVLG
IC50, IL-12-induced IFN-γ production by PHA blast cells (human IL-12 [8]): 0.005 nM

B7: DVD1812SL (anti-IL12/IL18 DVD-Ig) (bispecific antibody, human IgG1, kappa)
heavy: not shown
light: EIVMTQSPATLSVSPGERATLSCRASESISSNLAWYQQKPGQAPRLFIYTASTRATDIPARFSGSGSGTEFTLTISSLQSEDFAVYYCQQYNNWPSITFGQGTRLEIKRTVAAPQSVLTQPPSVSGAPGQRVTISCSGSRSNIGSNTVKWYQQLPGTAPKLLIYYNDQRPSGVPDRFSGSKSGTSASLAITGLQAEDEADYYCQSYDRYTHPALLFGTGTKVTVLGTVAAPSVFIFPPSDEQLKSGTASVVCLLNNFYPREAKVQWKVDNALQSGNSQESVTEQDSKDSTYSLSSTLTLSKADYEKHKVYACEVTHQGLSSPVTKSFNRGEC
Potency (IC50), KG-1 bioassay (IFN-γ production) (human IL-18): 0.04 nM | Potency (IC50), IL-12-induced IFN-γ production by PHA blast cells (human IL-12 [8]): 0.366 nM

B8: DVD1812LL (anti-IL12/IL18 DVD-Ig) (bispecific antibody, human IgG1, kappa)
heavy: not shown
light: EIVMTQSPATLSVSPGERATLSCRASESISSNLAWYQQKPGQAPRLFIYTASTRATDIPARFSGSGSGTEFTLTISSLQSEDFAVYYCQQYNNWPSITFGQGTRLEIKRTVAAPSVFIFPPQSVLTQPPSVSGAPGQRVTISCSGSRSNIGSNTVKWYQQLPGTAPKLLIYYNDQRPSGVPDRFSGSKSGTSASLAITGLQAEDEADYYCQSYDRYTHPALLFGTGTKVTVLGTVAAPSVFIFPPSDEQLKSGTASVVCLLNNFYPREAKVQWKVDNALQSGNSQESVTEQDSKDSTYSLSSTLTLSKADYEKHKVYACEVTHQGLSSPVTKSFNRGEC
Potency (IC50), KG-1 bioassay (IFN-γ production) (human IL-18): 0.078 nM | Potency (IC50), IL-12-induced IFN-γ production by PHA blast cells (human IL-12 [8]): 0.118 nM

B9: anti-IL-12 mAb 1D4.1 (antibody, V domains shown)
VH: EVTLRESGPALVKPTQTLTLTCTFSGFSLSKSVMGVSWIRQPPGKALEWLAHIYWDDDKYYNPSLKSRLTISKDTSKNQVVLTMTNMDPVDTATYYCARRGIRSAMDYWGQGTTVTVSS
VL: DIVMTQSPDSLAVSLGERATINCKASQSVSNDVAWYQQKPGQPPKLLIYYASNRYTGVPDRFSGSGSGTDFTLTISSLQAEDVAVYYCQQDYNSPWTFGGGTKVEIKR
Potency (IC50), PBMC assay (IL-12) (human IL-12 [9]): 0.418 nM

B10: mouse anti-mouse IL-1α mAb 9H10 (antibody, V domains shown)
VH: QVILKESGPGILQPSQTLSLTCSFSGFSLSTYGTAVNWIRQPSGKGLEWLAQIGSDDRKLYNPFLKSRITLSEDTSNSQVFLKITSVDTEDSATYYCANGVMEYWGLGTSVTVSS
VL: SIVMTQTPKFLLVSAGDRVTITCKASQSVNHDVAWYQQMPGQSPKLLIYFASNRYTGVPDRFTGSGYGTDFTFTISTVQAEDLAVYFCQQDYSSPYTFGGGTKLEIKR
IC50, in vitro potency (assay not described) (mouse IL-1α): 0.2 nM

B11: mouse anti-mouse IL-1β mAb 10G11 (antibody, V domains shown)
VH: EVQLQQSGPELVKPGTSVKMSCKTSGYTFTSYVMHWVKQKPGQGLEWIGYIIPYNDNTKYNEKFKGKATLTSDKSSSTAYMELSSLTSEDSAVYYCARRNEYYGSSFFDYWGQGTTLTVSS
VL: DIQMTQSPASLSASVGETVTITCRGSGILHNYLVWYQQKQGKSPQLLVYSAKILADGVPSRFSGSGSGTQYSLKINSLQPEDFGSYYCQHFWSTPFTFGSGTKLEIKR
IC50, in vitro potency (assay not described) (mouse IL-1β): 0.37 nM

B12: mIL-1α/β DVD-Ig (bispecific antibody, mouse IgG2a, kappa)
heavy: EVQLQQSGPELVKPGTSVKMSCKTSGYTFTSYVMHWVKQKPGQGLEWIGYIIPYNDNTKYNEKFKGKATLTSDKSSSTAYMELSSLTSEDSAVYYCARRNEYYGSSFFDYWGQGTTLTVSSAKTTAPSVYPLAPQVILKESGPGILQPSQTLSLTCSFSGFSLSTYGTAVNWIRQPSGKGLEWLAQIGSDDRKLYNPFLKSRITLSEDTSNSQVFLKITSVDTEDSATYYCANGVMEYWGLGTSVTVSSAKTTAPSVYPLAPVCGDTTGSSVTLGCLVKGYFPEPVTLTWNSGSLSSGVHTFPAVLQSDLYTLSSSVTVTSSTWPSQSITCNVAHPASSTKVDKKIEPRGPTIKPCPPCKCPAPNLLGGPSVFIFPPKIKDVLMISLSPIVTCVVVDVSEDDPDVQISWFVNNVEVHTAQTQTHREDYNSTLRVVSALPIQHQDWMSGKEFKCKVNNKDLPAPIERTISKPKGSVRAPQVYVLPPPEEEMTKKQVTLTCMVTDFMPEDIYVEWTNNGKTELNYKNTEPVLDSDGSYFMYSKLRVEKKNWVERNSYSCSVVHEGLHNHHTTKSFSRTPGK
light: DIQMTQSPASLSASVGETVTITCRGSGILHNYLVWYQQKQGKSPQLLVYSAKILADGVPSRFSGSGSGTQYSLKINSLQPEDFGSYYCQHFWSTPFTFGSGTKLEIKRADAAPTVSIFPPSIVMTQTPKFLLVSAGDRVTITCKASQSVNHDVAWYQQMPGQSPKLLIYFASNRYTGVPDRFTGSGYGTDFTFTISTVQAEDLAVYFCQQDYSSPYTFGGGTKLEIKRADAAPTVSIFPPSSEQLTSGGASVVCFLNNFYPKDINVKWKIDGSERQNGVLNSWTDQDSKDSTYSMSSTLTLTKDEYERHNSYTCEATHKTSTSPIVKSFNRNEC
IC50, in vitro potency (assay not described) (mouse IL-1β): 0.8 nM | IC50, in vitro potency (assay not described) (mouse IL-1α): 2 nM
